# From US9371374 (AbbVie / Abbott, dated 2016)
# T1: HCV Core1-169 (HCV-1, UniProt P26664 1-169)
# T1 construct: also called Solid Phase HCV Core
# T1 sequence: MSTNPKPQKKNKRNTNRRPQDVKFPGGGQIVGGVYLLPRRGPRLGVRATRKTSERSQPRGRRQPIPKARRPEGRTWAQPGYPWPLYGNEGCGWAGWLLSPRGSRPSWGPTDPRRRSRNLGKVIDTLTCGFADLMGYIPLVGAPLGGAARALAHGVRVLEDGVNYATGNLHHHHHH
# Assays:
# HCV Core1-169 [1] = target: T1, HCV Core1-169; assay: SPR sandwich, C11-14 capture
# HCV Core1-169 [2] = target: T1, HCV Core1-169; assay: EIA, coated core1-169
# HCV Core1-169 [3] = target: T1, HCV Core1-169; assay: SPR sandwich, C11-3 capture
# HCV Core1-169 [4] = target: T1, HCV Core1-169; assay: SPR sandwich, C11-7 capture
# HCV Core1-169 [5] = target: T1, HCV Core1-169; assay: EIA, core captured by anti-domain 1 mAb
# [6] = target: HCV Core 134-171-TT peptide (ALRZ-9 peptide) (HCV-1); assay: SPR, captured mAb;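 also: Anti-HCV Core mAbs from hybridoma supernatants held on a rabbit anti-mouse IgG CM5 surface, peptide flowed over 3 min then 4 min dissociation, duplicate concentrations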
# HCV Core1-169 [7] = target: T1, HCV Core1-169; assay: SPR sandwich, C11-9 capture
Binder,expected % binding (HCV Core1-169 [1]) [%],OD (A492) (HCV Core1-169 [2]) [OD],expected % binding (HCV Core1-169 [3]) [%],expected % binding (HCV Core1-169 [4]) [%],OD (A492) (HCV Core1-169 [5]) [OD],Kd [6] [nM],koff [6] [s⁻¹],kon [6] [M⁻¹ s⁻¹],expected % binding (HCV Core1-169 [7]) [%]
"HCV 208B-862 (antibody, V domains shown) VH: DVQLQESGPGLVKPSQSLSLTCTVTGYSITSDYAWNWIRQFPGNKLEWMGYISYSGTTVYSPSLKSRISITRDTSKNQFFLQLNSVTIEDSATYYCGGNYWGQGTLVTVSA VL: DVVLTQTPLSLPLSLGDQASISCRSSQTLLHSDGDTYLHWYLQKPGQSPKLLIYKLSNRFSGVPDRFSGSGSGTDFTLKISRVEAEDLGVYFCSQSTHVPYTFGGGTKLEIKR",12.6,0.49,11.2,15.2,1.07,0.07,0.0001,1.4e+06,8.9
"HCV 208A-422 (antibody, V domains shown) VH: DVQLQESGPGLVNPSQSLSLTCSVTGYSITSGYYWIWIQQSPGNKLEWMGYIKYDGGNNYSPSLKNRISIARDTSKNQCFLKLNSVTIEDTATYYCTRGSDSFDYWGQGTTLTVSS VL: DIVLTQSPASLAVSLGQRAIISCKASQSVSFAGTNLMHWYQQKPGQQPKLLIYRASNLETGVPTRFSGSGSRTDFTLNIHPVEEDDAATYYCQQSREYYTFGGGTKLEIKR",–,1.68,–,–,0.18,–,–,–,–
